The results in this text go back to patent US20110312518A1.

Data set [1] deals with T1, Src peptide substrate KVEKIGEGTYGVVYK
T1 sequence: KVEKIGEGTYGVVYK

The target in data set [2] is phospho-CrkL recombinant protein. Briefly: sandwich immunoassay, 96-well plate, 12 hours: Y244 capture, phospho-CrkL analyte, 4G10 and FITC anti-mouse detection.
Data set [3] shares this target. Briefly: sandwich immunoassay, microfluidic chip, 1 hour: Y244 capture, phospho-CrkL analyte, 4G10-coated beads counted.

Consider Src kinase, for which the “detection limit (kinase activity, beads bound/counted)” value in data set [1] is given as “resulting in a detection limit of 100 fM”.
For the substance “rabbit anti-CrkL monoclonal antibodies (clone Y244, Novus Biologicals #NB110-56895) (antibody)”, the Current limit of detection in data set [2] was determined as 1 nM; in data set [3] it was 100 pM.
